This note sets out measurements from article PMC8240853 (The Journal of Cell Biology, 2021).

Several values for one entry are separate records, joined by “and”; a condition that tells them apart may be missing. Equal entries are not always repeated.

The target in one assay is WDR62 WD40 domain, 1-790 (UniProt O43379). The assay is described as follows: streptavidin pull-down, GFP Western blot. The conditions noted are these: reference: wild-type C3 fragment; sites T1053.
The target in assay [1] is microtubules of porcine brain tubulin (porcine) (UniProt P02550). The assay is described as follows: binding to microtubules in vitro.
The next assay concerns the target T1, Strep-TagBFP-TPX2 (human, UniProt Q9ULW0-1 1-747).
T1 sequence: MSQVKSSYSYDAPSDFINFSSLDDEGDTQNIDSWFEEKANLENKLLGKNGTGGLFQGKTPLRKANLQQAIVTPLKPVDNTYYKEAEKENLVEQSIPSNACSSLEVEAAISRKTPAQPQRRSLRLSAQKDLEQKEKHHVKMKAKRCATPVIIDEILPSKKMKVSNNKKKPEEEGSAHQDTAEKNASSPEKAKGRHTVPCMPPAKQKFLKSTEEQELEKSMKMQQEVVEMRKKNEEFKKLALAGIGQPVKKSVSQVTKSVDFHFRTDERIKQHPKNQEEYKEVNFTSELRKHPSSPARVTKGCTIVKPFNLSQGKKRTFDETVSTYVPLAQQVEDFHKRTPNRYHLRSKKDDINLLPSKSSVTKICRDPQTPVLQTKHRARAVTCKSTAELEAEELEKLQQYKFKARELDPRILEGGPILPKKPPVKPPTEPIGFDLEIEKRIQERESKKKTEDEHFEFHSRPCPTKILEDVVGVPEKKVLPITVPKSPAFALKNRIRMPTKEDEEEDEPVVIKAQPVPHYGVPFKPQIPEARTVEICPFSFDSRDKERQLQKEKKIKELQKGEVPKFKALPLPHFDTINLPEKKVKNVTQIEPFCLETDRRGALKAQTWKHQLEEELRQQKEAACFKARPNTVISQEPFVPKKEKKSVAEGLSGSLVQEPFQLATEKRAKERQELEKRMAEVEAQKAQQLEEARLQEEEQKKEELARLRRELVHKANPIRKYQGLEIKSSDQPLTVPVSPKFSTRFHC
The assay is described as follows: recruitment to microtubules in vitro.

The next assay addresses WDR62 FL WT-GFP-Strep (human, UniProt O43379-4 1-1523). The experiment in a line: recruitment to microtubules in vitro.
The target in another assay is Strep-p80 WD (UniProt Q8BG40 1-315). The experiment in a line: pull-down.
Chain of Strep-p80 WD (Q8BG40 1-315): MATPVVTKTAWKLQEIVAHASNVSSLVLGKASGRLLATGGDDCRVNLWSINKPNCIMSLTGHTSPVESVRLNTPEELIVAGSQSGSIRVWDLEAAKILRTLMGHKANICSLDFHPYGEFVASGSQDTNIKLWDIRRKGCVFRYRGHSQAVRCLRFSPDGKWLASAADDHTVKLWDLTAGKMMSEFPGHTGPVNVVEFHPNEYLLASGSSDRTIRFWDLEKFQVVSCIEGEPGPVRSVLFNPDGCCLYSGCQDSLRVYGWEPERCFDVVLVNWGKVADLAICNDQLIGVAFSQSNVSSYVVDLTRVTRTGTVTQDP

Turning to “WDR62 C3, 1001-1523 (from UniProt O43379) C3 T1053A”, the “binding against the reference” value with WDR62 WD40 domain, 1-790 is “lost”.

Consider “WDR62 WD-GFP-Strep (from UniProt O43379-4 1-790) (domain or fragment)”, for which the fold affinity for GMPCPP-stabilized MTs against the FL protein in assay [1] was 4 fold and 5 fold.

In turn, “p60/TagBFP-p80 (from UniProt O43379-4;Q8BG40) (complex)” displayed a breakage frequency of WDR62 N2-decorated curved MTs in live MRC5 cells with WDR62-N2-GFP (human) of 95%.

“p60/TagBFP-p80 R615A (from UniProt O43379-4;Q8BG40) (complex)” had a breakage frequency of WDR62 N2-decorated curved MTs in live MRC5 cells in the assay with WDR62-N2-GFP (human) of 95%.

B1: Strep-GFP–Aurora A (natural protein)
chain: MDRSKENCISGPVKATAPVGGPKRVLVTQQFPCQNPLPVNSGQAQRVLCPSNSSQRIPLQAQKLVSSHKPVQNQKQKQLQATSVPHPVSRPLNNTQKSKQPLPSAPENNPEEELASKQKNEESKKRQWALEDFEIGRPLGKGKFGNVYLAREKQSKFILALKVLFKAQLEKAGVEHQLRREVEIQSHLRHPNILRLYGYFHDATRVYLILEYAPLGTVYRELQKLSKFDEQRTATYITELANALSYCHSKRVIHRDIKPENLLLGSAGELKIADFGWSVHAPSSRRTTLCGTLDYLPPEMIEGRMHDEKVDLWSLGVLCYEFLVGKPPFEANTYQETYKRISRVEFTFPDFVTEGARDLISRLLKHNPSQRPMLREVLEHPWITANSSKPSNCQNKESASKQS
B1: the binding result with Strep-TagBFP-TPX2 is listed as “binds”.

B2: TPX2/TagBFP–Aurora A complex (complex)
chain 1: T1 sequence
chain 2: B1 chain
With B2, the binding result with WDR62 FL WT-GFP-Strep is “binds”.

Turning to LAFHAKRSYQPHGRWAERAGQEPLKTILDAQDLDCYFTPMKPES (domain or fragment) [trxA-6xHis-WDR62 M1], the binding result with Strep-p80 WD is given as “binds”.
